Residue numbers refer to the chain shown, from its start.
B1: F47.I35 (bispecific antibody)
NKG2D-binding VH: QVQLQQWGAGLLKPSETLSLTCAVYGGSFSGYYWSWIRQPPGKGLEWIGEIDHSGSTNYNPSLKSRVTISVDTSKNQFSLKLSSVTAADTAVYYCARARGPWSFDPWGQGTLVTVSS
NKG2D-binding VL: DIQMTQSPSTLSASVGDRVTITCRASQSISSWLAWYQQKPGKAPKLLIYKASSLESGVPSRFSGSGSGTEFTLTISSLQPDDFATYYCQQYDTFITFGGGTKVEIK
CD33-binding VH: QLQLQESGPGLVKPSETLSLTCTVSGGSISSTDYYWGWIRQPPGKGLEWIGSIGYSGTYYNPSLKSRVTISVDTSKNQFSLKLSSVTAADTAVYYCARETAHDVHGMDVWGQGTTVTVSS
CD33-binding VL: EIVLTQSPATLSLSPGERATLSCRASHSVYSYLAWYQQKPGQAPRLLIYDASNRATGIPARFSGSGSGTDFTLTISSLEPEDFAVYYCQQYDNLPTFGGGTKVEIK
B2: C26.H76 (bispecific antibody)
NKG2D-binding VH: B1 NKG2D-binding VH
NKG2D-binding VL: DIQMTQSPSTLSASVGDRVTITCRASQSISSWLAWYQQKPGKAPKLLIYKASSLESGVPSRFSGSGSGTEFTLTISSLQPDDFATYYCQQYGSFPITFGGGTKVEIK
CD33-binding VH: EVQLLESGGGLVQPGGSLRLSCAASGFTFSKYTMSWVRQAPGKGLEWVSAIVGSGESTYFADSVKGRFTISRDNSKNTLYLQMNSLRAEDTAVYYCAREGGPYYDSSGYFVYYGMDVWGQGTTVTVSS
CD33-binding VL: B1 NKG2D-binding VL with T93D, F94L, I95P
B3: A44.G59 (bispecific antibody)
NKG2D-binding VH: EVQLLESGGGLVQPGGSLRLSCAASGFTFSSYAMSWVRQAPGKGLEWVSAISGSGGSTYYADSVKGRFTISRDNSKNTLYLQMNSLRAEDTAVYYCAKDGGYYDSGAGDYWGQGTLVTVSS
NKG2D-binding VL: DIQMTQSPSSVSASVGDRVTITCRASQGIDSWLAWYQQKPGKAPKLLIYAASSLQSGVPSRFSGSGSGTDFTLTISSLQPEDFATYYCQQGVSYPRTFGGGTKVEIK
CD33-binding VH: EVQLVESGGGLVQPGGSLRLSCAASGFTFSSYGMSWVRQAPGKGLEWVANIKQDGSEKYYVDSVKGRFTISRDNAKNSLYLQMNSLRAEDTAVYYCAREGGPYYDSSGYFVYYGMDVWGQGTTVTVSS
CD33-binding VL: B1 NKG2D-binding VL with K50D, D92E, T93S, I95P
B4: C26.G59 (bispecific antibody)
NKG2D-binding VH: B1 NKG2D-binding VH
NKG2D-binding VL: B2 NKG2D-binding VL
CD33-binding VH: B3 CD33-binding VH
CD33-binding VL: B1 NKG2D-binding VL with K50D, D92E, T93S, I95P
B5: A49.G59 (bispecific antibody)
NKG2D-binding VH: EVQLVESGGGLVKPGGSLRLSCAASGFTFSSYSMNWVRQAPGKGLEWVSSISSSSSYIYYADSVKGRFTISRDNAKNSLYLQMNSLRAEDTAVYYCARGAPMGAAAGWFDPWGQGTLVTVSS
NKG2D-binding VL: B3 NKG2D-binding VL with D30S, Y94F
CD33-binding VH: B3 CD33-binding VH
CD33-binding VL: B1 NKG2D-binding VL with K50D, D92E, T93S, I95P
B6: A40.H76 (bispecific antibody)
NKG2D-binding VH: B1 NKG2D-binding VH
NKG2D-binding VL: B1 NKG2D-binding VL with S30G, D92H, T93S, I95Y
CD33-binding VH: B2 CD33-binding VH
CD33-binding VL: B1 NKG2D-binding VL with T93D, F94L, I95P
B7: A44.I35 (bispecific antibody)
NKG2D-binding VH: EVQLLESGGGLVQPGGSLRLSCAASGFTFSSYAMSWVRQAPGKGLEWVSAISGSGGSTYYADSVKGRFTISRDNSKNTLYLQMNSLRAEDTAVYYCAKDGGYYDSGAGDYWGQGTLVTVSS
NKG2D-binding VL: B3 NKG2D-binding VL
CD33-binding VH: B1 CD33-binding VH
CD33-binding VL: B1 CD33-binding VL
B8: C26.I07 (bispecific antibody)
NKG2D-binding VH: B1 NKG2D-binding VH
NKG2D-binding VL: B2 NKG2D-binding VL
CD33-binding VH: EVQLVESGGGLVQPGGSLRLSCAASGFTFGSYWMSWVRQAPGKGLEWVATIKQDGSEKSYVDSVKGRFTISRDNAKNSLYLQMNSLRAEDTAVYYCARPLNAGELDVWGQGTMVTVSS
CD33-binding VL: DIQMTQSPSTLSASVGDRVTITCRASQSISSWLAWYQQKPGKAPKLLIYEASSLESGVPSRFSGSGSGTEFTLTISSLQPDDFATYYCQQSQSYPPITFGGGTKVEIK
B9: A49.I35 (bispecific antibody)
NKG2D-binding VH: B5 NKG2D-binding VH
NKG2D-binding VL: B3 NKG2D-binding VL with D30S, Y94F
CD33-binding VH: B1 CD33-binding VH
CD33-binding VL: B1 CD33-binding VL
B10: C26.I35 (bispecific antibody)
NKG2D-binding VH: B1 NKG2D-binding VH
NKG2D-binding VL: B2 NKG2D-binding VL
CD33-binding VH: B1 CD33-binding VH
CD33-binding VL: B1 CD33-binding VL
B11: A40.G59 (bispecific antibody)
NKG2D-binding VH: B1 NKG2D-binding VH
NKG2D-binding VL: B1 NKG2D-binding VL with S30G, D92H, T93S, I95Y
CD33-binding VH: B3 CD33-binding VH
CD33-binding VL: B1 NKG2D-binding VL with K50D, D92E, T93S, I95P
B12: A44.H76 (bispecific antibody)
NKG2D-binding VH: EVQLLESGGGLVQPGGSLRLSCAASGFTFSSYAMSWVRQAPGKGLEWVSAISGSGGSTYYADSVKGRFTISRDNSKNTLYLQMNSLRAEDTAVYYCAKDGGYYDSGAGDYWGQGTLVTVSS
NKG2D-binding VL: B3 NKG2D-binding VL
CD33-binding VH: B2 CD33-binding VH
CD33-binding VL: B1 NKG2D-binding VL with T93D, F94L, I95P
B13: A49.H76 (bispecific antibody)
NKG2D-binding VH: B5 NKG2D-binding VH
NKG2D-binding VL: B3 NKG2D-binding VL with D30S, Y94F
CD33-binding VH: B2 CD33-binding VH
CD33-binding VL: B1 NKG2D-binding VL with T93D, F94L, I95P
B14: F47.H76 (bispecific antibody)
NKG2D-binding VH: B1 NKG2D-binding VH
NKG2D-binding VL: B1 NKG2D-binding VL
CD33-binding VH: B2 CD33-binding VH
CD33-binding VL: B1 NKG2D-binding VL with T93D, F94L, I95P
B15: F47.G59 (bispecific antibody)
NKG2D-binding VH: B1 NKG2D-binding VH
NKG2D-binding VL: B1 NKG2D-binding VL
CD33-binding VH: B3 CD33-binding VH
CD33-binding VL: B1 NKG2D-binding VL with K50D, D92E, T93S, I95P
B16: A44.I07 (bispecific antibody)
NKG2D-binding VH: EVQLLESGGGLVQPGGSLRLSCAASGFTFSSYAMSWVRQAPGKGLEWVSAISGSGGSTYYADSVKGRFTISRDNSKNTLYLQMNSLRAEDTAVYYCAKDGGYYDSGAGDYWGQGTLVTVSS
NKG2D-binding VL: B3 NKG2D-binding VL
CD33-binding VH: B8 CD33-binding VH
CD33-binding VL: B8 CD33-binding VL
B17: A49.I07 (bispecific antibody)
NKG2D-binding VH: B5 NKG2D-binding VH
NKG2D-binding VL: B3 NKG2D-binding VL with D30S, Y94F
CD33-binding VH: B8 CD33-binding VH
CD33-binding VL: B8 CD33-binding VL

Biological target: T1, human CD33 expressed on cells (human, UniProt P20138 18-364)
T1 construct: endogenous CD33 of human AML cell lines and blood monocytes; also called cell-expressed CD33 (Molm-13, Mv4-11, monocytes)
T1 sequence (P20138 18-364): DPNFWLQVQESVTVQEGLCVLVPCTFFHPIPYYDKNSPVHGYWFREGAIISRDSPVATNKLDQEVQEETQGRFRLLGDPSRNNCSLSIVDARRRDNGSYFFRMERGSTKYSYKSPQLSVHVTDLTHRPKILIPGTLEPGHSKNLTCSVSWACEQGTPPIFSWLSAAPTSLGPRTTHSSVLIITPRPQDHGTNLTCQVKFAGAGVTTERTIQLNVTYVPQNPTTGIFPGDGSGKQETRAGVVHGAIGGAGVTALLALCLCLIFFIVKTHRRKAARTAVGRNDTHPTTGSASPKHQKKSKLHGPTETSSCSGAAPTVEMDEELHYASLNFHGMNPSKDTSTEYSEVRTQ
Experiment: flow cytometry on Molm-13 cells, fluorophore-conjugated anti-human IgG secondary antibody, MFI as fold over background (FOB)
Description: Binding of the TriNKET was detected using a fluorophore conjugated anti-human IgG secondary antibody. Cells were analyzed by flow cytometry, binding MFI to cell expressed CD33 was normalized to secondary antibody controls to obtain fold over background values.

Row | binding result | Binder
1 | binds | B1
2 | binds | B2
3 | binds | B3
4 | binds | B4
5 | binds | B5
6 | binds | B6
7 | binds | B7
8 | binds | B8
9 | binds | B9
10 | binds | B10
11 | binds | B11
12 | binds | B12
13 | binds | B13
14 | binds | B14
15 | binds | B15
16 | binds | B16
17 | binds | B17
